T1: Peptide 2a
T1 peptide: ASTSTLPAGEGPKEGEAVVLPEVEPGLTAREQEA

T2: Pep6
T2 peptide: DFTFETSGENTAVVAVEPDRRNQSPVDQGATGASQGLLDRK

T3: recombinant CD138 extracellular domain (soluble CD138) (UniProt P18827 23-250)
T3 chain: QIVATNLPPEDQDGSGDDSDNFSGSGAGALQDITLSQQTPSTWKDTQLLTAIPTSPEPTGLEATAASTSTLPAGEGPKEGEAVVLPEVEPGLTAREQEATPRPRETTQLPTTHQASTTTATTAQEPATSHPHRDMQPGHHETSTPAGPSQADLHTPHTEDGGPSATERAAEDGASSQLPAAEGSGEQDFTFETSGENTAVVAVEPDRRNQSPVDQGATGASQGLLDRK


Legend:
Assay in all cases: ELISA
Peptide 2a = molecular target: T1, Peptide 2a
Pep6 = molecular target: T2, Pep6
[1] = molecular target: T3, recombinant CD138 extracellular domain …

| EC50 (Peptide 2a) [ng/mL] | EC50 (Pep6) [ng/mL] | EC50 [1] [ng/mL] | Binder |
| --- | --- | --- | --- |
| 3.9 | 12.3 | 2.7 | antibody 1610 (antibody, V domains shown) VH: QVQLHQPGTSLVKPGASVKLSCKASGYNFSSYYMHWVKQRPGQGLEWIGTIHPSDSTTNCNQKFKGKATLTVDKSSRTAYMQLNSLTFEDSAVYYCANFVYWGQGTSVTVSS VL: DIVITQDELSNPVTSGDSVSISCRSSKSLLYKDGKTYLNWFLQRPGQSPQLLIYVVSTRASGVSDRFSGSGSGTDFTLEISRVKAEDVGVYYCQQLVEYPYTFGGGTKLEIK |
| 4.6 | 8.9 | 4.9 | antibody 2510 (antibody, V domains shown) VH: QVQLHQPGTSLVKPGASVKLSCKASGYNFSSYYMHWVKQRPGQGLEWIGTIHPSDSTTNYNQKFKGKATLTVDKSSRTAYMQLNSLTFEDSAVYYCANFVYWGQGTSVTVSS VL: DIVITQDELSNPVTSGDSVSISCRSSKSLLYKDGKTYLNWFLQRPGQSPQLLIYVVSTRASGVSDRFSGSGSGTDFTLEISRVKAEDVGVYYCQQLVEYPYTFGGGTKLEIK |
| 3.8 | 4.9 | 7 | antibody 2610 (antibody, V domains shown) VH: QVQLHQPGTSLVKPGASVKLSCKASGYSFSSYYMHWVKQRPGQGLEWIGTIHPSDSTTNCNQKFKGKATLTVDKSSRTAYMQLNSLTFEDSAVYYCANFVYWGQGTSVTVSS VL: DIVITQDELSNPVTSGDSVSISCRSSKSLLYKDGKTYLNWFLQRPGQSPQLLIYVVSTRASGVSDRFSGSGSGTDFTLEISRVKAEDVGVYYCQQLVEYPYTFGGGTKLEIK |
| 2.8 | 3.2 | 5.3 | antibody 2810 (antibody, V domains shown) VH: QVQLHQPGTSLVKPGASVKLSCKASGYSFSSYYMHWVKQRPGQGLEWIGTIHPSDSTTNYNQKFKGKATLTVDKSSRTAYMQLNSLTFEDSAVYYCANFVYWGQGTSVTVSS VL: DIVITQDELSNPVTSGDSVSISCRSSKSLLYKDGKTYLNWFLQRPGQSPQLLIYVVSTRASGVSDRFSGSGSGTDFTLEISRVKAEDVGVYYCQQLVEYPYTFGGGTKLEIK |

From patent US20190100588A1 (published 2019)
